In paper PMC12224988, “The MdHB7L–MdICE1L–MdHOS1 Module Fine‐Tunes Apple Cold Response via CBF‐Dependent and CBF‐Independent Pathways”:

T1: MdHB7L-HIS (UniProt D9ZJ22 1-236)
T1 sequence: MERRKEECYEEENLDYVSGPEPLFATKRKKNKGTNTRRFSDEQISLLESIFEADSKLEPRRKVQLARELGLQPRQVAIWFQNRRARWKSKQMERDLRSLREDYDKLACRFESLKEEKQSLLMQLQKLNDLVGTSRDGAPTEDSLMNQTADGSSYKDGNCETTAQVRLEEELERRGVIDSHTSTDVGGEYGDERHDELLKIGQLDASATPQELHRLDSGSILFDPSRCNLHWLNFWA

B1: pMdRD26-4-HB (dsDNA)
DNA 1: ATAAATATAATTACCTGTGAGTTGATTATA
DNA 2: TATAATCAACTCACAGGTAATTATATTTAT
B2: pMdPAP2-2-HB (dsDNA)
DNA 1: GCACCAAGTCCAATTATTGAGCAATTAATG
DNA 2: CATTAATTGCTCAATAATTGGACTTGGTGC
B3: pMdCBF1-HB-P4 (dsDNA)
DNA 1: GAAATTAAGTACTAATTGTTCAGTACCAAG
DNA 2: CTTGGTACTGAACAATTAGTACTTAATTTC
B4: pMdCBF3-HB-P1 (dsDNA)
DNA 1: AAAAATAAAATGATTAGCCTGGCGCATCTA
DNA 2: TAGATGCGCCAGGCTAATCATTTTATTTTT
B5: pMdPRX52-5-HB (dsDNA)
DNA 1: AATTAAGCTAAATCATTAACAATTTTCATT
DNA 2: AATGAAAATTGTTAATGATTTAGCTTAATT
B6: pMdCBF1-HB-P1 (dsDNA)
DNA 1: AAAGCATAGAAATAATTCCAAAACTATTTT
DNA 2: AAAATAGTTTTGGAATTATTTCTATGCTTT
B7: pMdERDL6-7-1-HB (dsDNA)
DNA 1: GCATTTTATAATTGTTTATTATTTTTAATTAGAAAAAATC
DNA 2: GATTTTTTCTAATTAAAAATAATAAACAATTATAAAATGC
B8: pMdPRX52-4-HB (dsDNA)
DNA 1: CTTGTCCGTAAATGATTGACATTGGTTTAC
DNA 2: GTAAACCAATGTCAATCATTTACGGACAAG
B9: pMdPAP2-1-HB (dsDNA)
DNA 1: GATGTGTGTTGTAATTAGTTACACGATTCT
DNA 2: AGAATCGTGTAACTAATTACAACACACATC
B10: pMdERD5-4-HB (dsDNA)
DNA 1: TTAAGACTAGCTTAATTGCGAGGATATCAT
DNA 2: ATGATATCCTCGCAATTAAGCTAGTCTTAA
B11: pMdCBF3-HB-P2 (dsDNA)
DNA 1: CACTGTCGATTTAAATCATTCATACAGAAA
DNA 2: TTTCTGTATGAATGATTTAAATCGACAGTG
B12: pMdERDL6-7-4-HB (dsDNA)
DNA 1: CTTAAAATTTCTTAATTATCAGTTAACACC
DNA 2: GGTGTTAACTGATAATTAAGAAATTTTAAG
B13: pMdERDL6-7-5-HB (dsDNA)
DNA 1: ATGCAGAATCATTTATCCTTAATTAATCATA
DNA 2: TATGATTAATTAAGGATAAATGATTCTGCAT
B14: pMdPRX52-1-HB (dsDNA)
DNA 1: GTTAAACCAATTTAATTAATAAGATCTTAT
DNA 2: ATAAGATCTTATTAATTAAATTGGTTTAAC
B15: pMdERDL6-1-1-HB (dsDNA)
DNA 1: TTAGGATAGTAATTGGTAACTCTCGACTCC
DNA 2: GGAGTCGAGAGTTACCAATTACTATCCTAA
B16: pMdRD26-2-HB (dsDNA)
DNA 1: TCATTAAAGAGATAATTATGAAATAAAATA
DNA 2: TATTTTATTTCATAATTATCTCTTTAATGA
B17: pMdCBF1-HB-P3 (dsDNA)
DNA 1: TAGCAACTAATTAAGTCTTCAATAATTTCTAAAAGCA
DNA 2: TGCTTTTAGAAATTATTGAAGACTTAATTAGTTGCTA
B18: pMdRD26-3-HB (dsDNA)
DNA 1: ATAGAAATAAATAATTGACGAGATAAATAG
DNA 2: CTATTTATCTCGTCAATTATTTATTTCTAT
B19: pMdERD5-1-HB (dsDNA)
DNA 1: GAACTGCCTATATAATTAACAAGCTTCAGG
DNA 2: CCTGAAGCTTGTTAATTATATAGGCAGTTC
B20: pMdERD5-3-HB (dsDNA)
DNA 1: ATTGTTTGTATTTAATTGTAAATAAAAATA
DNA 2: TATTTTTATTTACAATTAAATACAAACAAT
B21: pMdPRX53-2-HB (dsDNA)
DNA 1: AATACGCCTCTAATTATTAGGTGCTTTTTG
DNA 2: CAAAAAGCACCTAATAATTAGAGGCGTATT
B22: pMdPRX53-3-HB (dsDNA)
DNA 1: TAAGTCTTTGTGTAATTAACAAAACAACGA
DNA 2: TCGTTGTTTTGTTAATTACACAAAGACTTA
B23: pMdCBF1-HB-P2 (dsDNA)
DNA 1: CTATTATTATTAATTACTTTTTTCACATAA
DNA 2: TTATGTGAAAAAAGTAATTAATAATAATAG
B24: pMdERDL6-7-3-HB (dsDNA)
DNA 1: CTTCATATCTTAATCATTCATCATGTATCG
DNA 2: CGATACATGATGAATGATTAAGATATGAAG
B25: pMdRD26-1-HB (dsDNA)
DNA 1: ATGCGACCATTAATTAAACTTACAAAATGT
DNA 2: ACATTTTGTAAGTTTAATTAATGGTCGCAT
B26: pMdERDL6-7-2-HB (dsDNA)
DNA 1: CAATATAATTAATTAAAAATTTTAAACTTTTCAACTAATTATGTTAG
DNA 2: CTAACATAATTAGTTGAAAAGTTTAAAATTTTTAATTAATTATATTG
B27: pMdERD5-2-HB (dsDNA)
DNA 1: TCTTTTTAGACCCTAATTATAGGGAAAGGG
DNA 2: CCCTTTCCCTATAATTAGGGTCTAAAAAGA
B28: pMdPRX52-2-HB (dsDNA)
DNA 1: TATTAAATCAGAATTATTAAGAGAAAATAA
DNA 2: TTATTTTCTCTTAATAATTCTGATTTAATA
B29: pMdPRX53-1-HB (dsDNA)
DNA 1: AATAGACCTACTAATTGGCTCACATATGCA
DNA 2: TGCATATGTGAGCCAATTAGTAGGTCTATT
B30: pMdPRX52-3-HB (dsDNA)
DNA 1: CAAATGTAATTAGCATTAATCCCAACTAACTATAAAAATGATTATCCTTG
DNA 2: CAAGGATAATCATTTTTATAGTTAGTTGGGATTAATGCTAATTACATTTG

Biological target: T1, MdHB7L-HIS
Experiment: EMSA; Beyotime Chemiluminescent EMSA Kit per manufacturer; buffer, salt, pH and temperature not given
Settings: protein: recombinant; tags: His (pET28a; BamHI/SalI site primers, no stop codon in reverse primer); chain copies: 2; label: biotin; blunt

Question: Does B1 bind?
Answer: no binding

Question: Does B2 bind?
Answer: binds

Question: Does B3 bind?
Answer: binds

Question: Does B4 bind?
Answer: binds

Question: Does B5 bind?
Answer: binds

Question: Does B6 bind?
Answer: binds

Question: Does B7 bind?
Answer: binds

Question: Does B8 bind?
Answer: binds

Question: Does B9 bind?
Answer: no binding

Question: Does B10 bind?
Answer: binds

Question: Does B11 bind?
Answer: binds

Question: Does B12 bind?
Answer: binds

Question: Does B13 bind?
Answer: binds

Question: Does B14 bind?
Answer: binds

Question: Does B15 bind?
Answer: binds

Question: Does B16 bind?
Answer: binds

Question: Does B17 bind?
Answer: binds

Question: Does B18 bind?
Answer: binds

Question: Does B19 bind?
Answer: binds

Question: Does B20 bind?
Answer: binds

Question: Does B21 bind?
Answer: binds

Question: Does B22 bind?
Answer: no binding

Question: Does B23 bind?
Answer: binds

Question: Does B24 bind?
Answer: binds

Question: Does B25 bind?
Answer: binds

Question: Does B26 bind?
Answer: binds

Question: Does B27 bind?
Answer: binds

Question: Does B28 bind?
Answer: binds

Question: Does B29 bind?
Answer: binds

Question: Does B30 bind?
Answer: binds
